B2: E. coli MtlR fused with His6-tag (ecHisMtlR), wild type (natural protein)
chain: MVDQAQDTLRPNNRLSDMQATMEQTQAFENRVLERLNAGKTVRSFLITAVELLTEAVNLLVLQVFRKDDYAVKYAVEPLLDGDGPLGDLSVRLKLIYGLGVINRQEYEDAELLMALREELNHDGNEYAFTDDEILGPFGELHCVAALPPPPQFEPADSSLYAMQIQRYQQAVRSTMVLSLTELISKISLKKAFQK
notes: Mannitol operon repressor MtlR of E. coli (cloned from genomic DNA of MG1655, K-12); ecHisMtlR is about 23 kDa with the tag; probably the whole protein (about 23 kDa with tag); Homodimer by SEC-MALS; also called wild-type His-MtlR; ecMtlR

For data set [1], the target named is T1, His-MtlR(E108S) (E. coli, UniProt P0AF10 1-195, E108S).
T1 construct: Mannitol operon repressor MtlR of E. coli, made by site-directed mutagenesis of pET-HisMtlR; also called E108S single mutant
T1 sequence: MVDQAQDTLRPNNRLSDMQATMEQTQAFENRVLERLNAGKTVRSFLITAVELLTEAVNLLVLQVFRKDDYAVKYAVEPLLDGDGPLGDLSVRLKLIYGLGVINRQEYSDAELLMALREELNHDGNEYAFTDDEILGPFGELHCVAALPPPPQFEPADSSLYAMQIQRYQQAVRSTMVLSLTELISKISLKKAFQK
In words: pull-down; His-MtlR (200 μg) mixed with 20 μl of EI-overproducing cell lysate, 200 μg of HPr, 2 mM MgCl2 and 50 μl of Talon resin, in the absence or presence of 2 mM PEP; SDS-PAGE, Coomassie. Particulars: both partners purified.

Data set [2] concerns the target T2, His-MtlR(E140S) (E. coli, UniProt P0AF10 1-195, E140S).
T2 construct: Mannitol operon repressor MtlR of E. coli, made by site-directed mutagenesis of pET-HisMtlR; also called E140S single mutant
T2 sequence: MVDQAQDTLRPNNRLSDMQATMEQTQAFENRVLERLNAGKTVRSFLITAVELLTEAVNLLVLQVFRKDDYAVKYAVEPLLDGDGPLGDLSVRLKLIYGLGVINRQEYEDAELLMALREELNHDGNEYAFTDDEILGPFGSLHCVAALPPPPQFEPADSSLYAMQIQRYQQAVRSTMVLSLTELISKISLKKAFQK
Put plainly: pull-down; His-MtlR (200 μg) mixed with HPr (200 μg) in 20 mM Tris-HCl pH 7.5, 50 mM NaCl, 2 mM β-mercaptoethanol, 5% glycerol; Talon metal affinity chromatography, 3 washes with 10 mM imidazole, elution with 150 mM imidazole; SDS-PAGE, Coomassie. Conditions: both partners purified.

In another data set the target is T3, His-MtlR(A115W) (E. coli, UniProt P0AF10 1-195, A115W).
T3 construct: Mannitol operon repressor MtlR of E. coli, made by site-directed mutagenesis of pET-HisMtlR; also called A115W mutant of His-tagged ecMtlR
T3 sequence: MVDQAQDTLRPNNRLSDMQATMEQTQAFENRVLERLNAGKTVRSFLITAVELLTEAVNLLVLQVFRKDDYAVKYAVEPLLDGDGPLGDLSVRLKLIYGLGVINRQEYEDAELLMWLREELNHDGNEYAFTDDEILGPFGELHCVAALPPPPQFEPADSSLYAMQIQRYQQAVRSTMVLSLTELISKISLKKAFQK
The description is as above. Particulars: both partners purified.

Another data set has as its target T4, His-MtlR(L112W) (E. coli, UniProt P0AF10 1-195, Leu112 was mutated to Trp).
T4 construct: Mannitol operon repressor MtlR of E. coli, made by site-directed mutagenesis of pET-HisMtlR; also called Leu112 mutated to Trp
T4 sequence: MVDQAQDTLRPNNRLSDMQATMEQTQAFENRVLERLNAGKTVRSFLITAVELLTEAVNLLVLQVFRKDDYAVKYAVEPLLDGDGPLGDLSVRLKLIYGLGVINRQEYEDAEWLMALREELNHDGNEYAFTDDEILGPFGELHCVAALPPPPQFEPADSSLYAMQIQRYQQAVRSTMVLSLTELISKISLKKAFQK
Described as above. Particulars: both partners purified.

Data set [3] deals with B2. Put plainly: SEC; gel filtration chromatography of purified MtlR and HPr from E. coli and V. vulnificus (Supplementary Fig. 4). Particulars: both partners purified. For orientation: Size exclusion chromatography separates by hydrodynamic size, large species first.
Data set [4] deals with the molecule itself. Put plainly: SEC-MALS; Superdex 200 increase 5/150 GL, binding buffer as mobile phase, 0.2 ml/min; HisMtlR alone (40 μg) and in complex with HPr (60 μg); concentration by refractive index.
The target of data set [5] is T1, His-MtlR(E108S). In words: MST; Monolith NT.115; serial dilutions of MtlR variants mixed 1:1 with NT-647-labelled HPr; 20 mM Tris-HCl pH 7.5, 50 mM NaCl, 2 mM β-mercaptoethanol, 0.05% BSA, 0.05% Tween-20, 5% glycerol. Conditions: both partners purified.
Data set [6] deals with T2, His-MtlR(E140S). The data set is described as above. Particulars: both partners purified.
Data set [7] deals with B2. Described as above. Conditions: both partners purified.

B1: E. coli histidine phosphocarrier protein HPr (dephosphorylated, untagged) (natural protein)
chain: not shown
notes: Histidine phosphocarrier protein HPr of E. coli, 9 kDa; Untagged; probably the whole protein (9 kDa); also called ecHPr; source: E. coli, overexpressed, purified (MonoQ, Superdex 75); for the complex overexpressed in E. coli GI698 harboring pSP100 and co-purified with MtlR
Take B1: the binding result (with His-MtlR(E108S) [1]; with His-MtlR(E140S) [2]; in the data set with His-MtlR(A115W); in the data set with His-MtlR(L112W); in data set [3]) was “binds” each time.
The term stoichiometry N denotes the number of molecules, sites or subunits per partner or assembly. In the case of B2, the “stoichiometry N” value in [4] was 2.

B3: E. coli HPr labelled with the dye NT-647 (natural protein)
chain: not shown
modifications: dye NT-647 coupled by N-hydroxysuccinimide (NHS) to lysine residues
notes: Histidine phosphocarrier protein HPr of E. coli, 9 kDa; Same protein as m2, fluorescently labelled for microscale thermophoresis; also called labeled HPr; source: E. coli, overexpressed, purified (MonoQ, Superdex 75), then labelled with NT-647-NHS
For orientation: Kd means the concentration at which binding is half-saturated. The low end stands for a tighter complex, the high end for a looser complex. Consider B3, for which the figures for the equilibrium dissociation constant (Kd) (with His-MtlR(E108S) [5]; with His-MtlR(E140S) [6]; in data set [7]) were 1.42 ± 0.08 µM, 1.53 ± 0.11 µM and roughly 0.021 µM, respectively.
